{"source": "paper PMC7721721", "tested_on": "anti-digoxigenin IgG antibody (sheep)", "experiment": "fluorescence (FRET) titration", "settings": "5'-digoxigenin; 25 mM HEPES pH 7.2, 0.1 M NaCl, 37 C (FRET titrations, templated reactions); native PAGE binding buffer not given in the material"}
{"sequence": "GTCACCGCAAAATAAGATTTTTTTTTTGAGTCGAATTCGTACC [DIG-Q-strand#2 (DIG-conjugated templating strand)]", "values": [{"measurement": "Kd", "value": 3.6, "unit": "nM"}]}
